Experimental data published in the Human Domainome abundance scans (Beltran et al. 2025).

B1: LIM and senescent cell antigen-like-containing domain protein 2, residues 13 to 71; numbered along this chain, Q7Z4I7 (parent)
chain: AVCQRCQARFSPAERIVNSNGELYHEHCFVCAQCFRPFPEGLFYEFEGRKYCEHDFQML

Variants of: B1
Assay: abundance fitness (aPCA) (normalised: wild type 0, dead -1); higher = more abundant; growth selection in yeast, the domain comes from the species named
Conditions: Homo sapiens

Abundance fitness, by site and new letter:
F43: A -0.143; T -0.014; S -0.103; Q 0.103; M -0.206; C -0.223; P -0.042; D -0.69; E -0.522; N -0.387; L -0.161; Y 0.059; I -0.263; H -0.204; R -0.37; V -0.132; K -0.365
E45: V -0.061; L -0.039
L42: F -0.301; V -0.026; R 0.006; G -0.108; T 0.07; S -0.064; W -0.302; H -0.198; P -0.357; D -0.023; Q -0.092; K 0.047; M 0.045; C -0.062; I 0.112; A 0.02; N -0.012; E 0.083
P37: F -0.192; Y -0.14; L -0.349; T -0.148; G -0.328; W -0.371; S -0.016; D -0.217; K -0.214; C -0.171; H -0.445; E 0.042; M -0.198; Q -0.343; V -0.193; I -0.23; A -0.187
R49: M -0.102; G -0.257; D -0.413; T -0.066; F -0.245; A -0.057; N -0.482; L -0.169; Y -0.328; E -0.205; C -0.011; V -0.123; K 0.029; I -0.101
K50: Y -0.104; W -0.191; F -0.3; D -0.473; L 0.005; A -0.2; R -0.05; H -0.225; T -0.047; V -0.091; P -0.177; G -0.212; Q -0.032; N 0.185; S -0.216; E -0.263; M 0.168
C34: G -0.544; Q -0.622; S -1; W -1.1; V -1.04; K -0.901; A -0.871; Y -0.933; R -0.668; E -0.788; T -1.13; N -0.865; D -0.757; L -0.52; P -0.508; F -1.19; M -0.474
Y51: I -0.283; A -0.754; C -0.298; V 0.014; T -0.702; G -0.922; P -0.729; Q -0.785; H -0.743; W -0.426; K -0.276; N -0.877; F -0.053; M 0.088; E -0.604; D -0.452; L 0.186
C52: E -0.719; A -1; D -0.622; F -0.882
P39: W -0.206; E -0.024; I -0.396; K -0.064; G -0.159; V -0.017; S -0.124; Q -0.058; Y -0.396; A -0.056; M -0.143; F -0.565; D 0.05; R -0.107; T -0.091; L -0.211; H -0.383; C 0.01
Y44: M -0.114; F 0.002; T -0.253; E -0.086; I -0.046; S -0.342; W -0.145; H 0.024; R -0.033; Q -0.019; K -0.03; C -0.009; D -0.259; G -0.324; N 0.088; L -0.247; P -0.941; A -0.404
F38: R -0.571; I -0.55; N -0.113; C -0.18; Q -0.606; K -0.238; E -0.512; W -0.273; M -0.225; H -0.784; P -0.101; Y -0.638; G -0.58; L 0.045; A -0.318; D -0.522; T -0.123
G41: H -0.338; V -0.613; E -0.612; P -0.518; T -0.268; S -0.228; R -0.084; I -0.733; K -0.305; C -0.205; F -0.481; Q 0.096; W -0.253; A -0.238; Y -0.532; M -0.271; N 0.021; L -0.394
E47: W -0.49; Q -0.204; H 0.022; G -0.062; L -0.243; C -0.247; S -0.364; N -0.335; M -0.222; K -0.274; T -0.434; F -0.585; P -0.773; Y -0.453; D -0.083; R -0.154; V -0.138; A -0.129
F35: W -0.076; P -0.739; T 0.072; L 0.031; A 0.077; V 0.112; H 0.224; C 0.096; K 0.204; N 0.147; M -0.027; G 0.195; E 0.144; S 0.219; D 0.153; Y 0.008; I 0.01; Q -0.014
F46: W 0.014; P -0.902; L 0.029; C -0.127; I -0.446; G -0.465; E -0.286; V -0.05; Q -0.272; R -0.271; H 0.114; N -0.202; K -0.173; M -0.241; D -0.217; A -0.039
E40: N -0.236; L -0.068; W -0.31; T -0.15; D -0.018; A -0.098; Y -0.212; I -0.752; V -0.266; Q -0.105; H 0.023; G -0.158; K -0.039
C31: Q -1.06; M -0.785; W -0.893; R -0.767; T -0.975; V -1.04; P -0.888; S -0.896
R36: W -0.423; E 0.01; Q 0.063; L -0.176; V -0.399; A -0.196; D -0.095; C -0.026; M -0.042; P -0.625; T -0.268; K 0.094; H -0.024; S -0.008; G -0.064; I -0.232; N -0.156; Y -0.515; F -0.298
A32: H 0.118; E 0.014; M -0.099; W -0.149; Q 0.083; K -0.274; R -0.26; Y 0.147; G -0.073; I -0.117; F -0.258; S -0.172; L -0.322; V -0.001; C -0.354; D -0.026
G48: K -0.067; P -0.686; Q -0.238; C -0.224; Y -0.451; A -0.201; V -0.775; H -0.411; S -0.021; E -0.062; T -0.15; N 0.114; W -0.838; D -0.03; I -0.789; R -0.083; M -0.398
Q33: A 0.024; V 0.071; N 0.053; M -0.068; L -0.195; F 0.285; R -0.077; T 0.012; W -0.206; P -0.58; C -0.145; K -0.092; S -0.135; E 0.044; Y -0.107
